Measurements from patent US20020058247A1 (TRIPEP, published 2002).

These binders were tested against T1, truncated recombinant form of HBeAg containing nine residues of pre-core and the 150 first residues of HBcAg (hepatitis B virus, UniProt P03146 1-150) (assay: EIA, support-bound peptide, HBeAg 2.5 ug/ml).
T1 construct: domain: nine residues of pre-core;range 1-150; also called hepatitis B virus e antigen
T1 sequence (P03146 1-150): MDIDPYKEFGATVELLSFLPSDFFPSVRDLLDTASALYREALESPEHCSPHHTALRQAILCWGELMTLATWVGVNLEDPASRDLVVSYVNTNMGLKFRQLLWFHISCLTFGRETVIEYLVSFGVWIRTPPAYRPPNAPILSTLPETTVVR
Binder CKASGYSFTGYNMNWVKQSH (also called Peptide # 26) [CKASGYSFTGYNMNWVKQSH (SEQ. ID. No. 29)] has an OD of 0.063 OD.
Work on VKPGASVKLSCKASGYIFTS (also called Peptide # 2; Pept. #2) [VKPGASVKLSCKASGYIFTS (SEQ. ID. No. 5)] yielded an OD of 0.063 OD.

The binders below were run against T2, Full length recombinant HBcAg (rHBcAg) encompassing residues 1-183 (hepatitis B virus, UniProt P03146 1-183) (assay: competition EIA, HBcAg coated 1 ug/ml, peptide 25 ug/ml before mAb 4-2 (competitor); OD of bound mAb).
T2 construct: range 1-183; also called hepatitis B virus core antigen
T2 sequence (P03146 whole entry, the tested form may be a part): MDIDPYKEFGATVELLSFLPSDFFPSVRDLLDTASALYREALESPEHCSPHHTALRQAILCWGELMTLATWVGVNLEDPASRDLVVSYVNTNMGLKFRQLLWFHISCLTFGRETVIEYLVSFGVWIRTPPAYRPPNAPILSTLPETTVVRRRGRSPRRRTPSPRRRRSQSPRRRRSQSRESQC
With CKASGYSFTGYNMNWVKQSH (also called Peptide # 26) [CKASGYSFTGYNMNWVKQSH (SEQ. ID. No. 29)] the “OD at 490 nm” value was 0.383 OD.
In the case of VKPGASVKLSCKASGYIFTS (also called Peptide # 2; Pept. #2) [VKPGASVKLSCKASGYIFTS (SEQ. ID. No. 5)], the “OD at 490 nm” value is reported as 0.341 OD.

The binders below were run against T2, Full length recombinant HBcAg (rHBcAg) … (assay: EIA, support-bound peptide, HBcAg 0.67 ug/ml).
With CKASGYSFTGYNMNWVKQSH (also called Peptide # 26) [CKASGYSFTGYNMNWVKQSH (SEQ. ID. No. 29)] the OD was 0.028 OD.
With VKPGASVKLSCKASGYIFTS (also called Peptide # 2; Pept. #2) [VKPGASVKLSCKASGYIFTS (SEQ. ID. No. 5)] the OD was 0.034 OD.

These binders were tested against T2, Full length recombinant HBcAg (rHBcAg) … (assay: EIA, support-bound peptide, HBcAg 20 ug/ml).
CKASGYSFTGYNMNWVKQSH (also called Peptide # 26) [CKASGYSFTGYNMNWVKQSH (SEQ. ID. No. 29)] gave an OD of 1.48 OD.
VKPGASVKLSCKASGYIFTS (also called Peptide # 2; Pept. #2) [VKPGASVKLSCKASGYIFTS (SEQ. ID. No. 5)] showed an OD of 3.45 OD.

The binders below were run against T2, Full length recombinant HBcAg (rHBcAg) … (assay: EIA, peptide coated 25 ug/ml, HBcAg 10 ug/ml).
Binder CKASGYSFTGYNMNWVKQSH (also called Peptide # 26) [CKASGYSFTGYNMNWVKQSH (SEQ. ID. No. 29)] has an OD of 0.181 OD.
VKPGASVKLSCKASGYIFTS (also called Peptide # 2; Pept. #2) [VKPGASVKLSCKASGYIFTS (SEQ. ID. No. 5)] gave an OD of 1.04 OD.

What follows are binders tested against T2, Full length recombinant HBcAg (rHBcAg) … (assay: competition EIA, HBcAg coated 5 ug/ml, peptide 12.5 ug/ml together with mAb 4-2 (competitor); OD of bound mAb).
In the case of CKASGYSFTGYNMNWVKQSH (also called Peptide # 26) [CKASGYSFTGYNMNWVKQSH (SEQ. ID. No. 29)], the “OD at 490 nm” value is reported as 1.27 OD.
In the case of VKPGASVKLSCKASGYIFTS (also called Peptide # 2; Pept. #2) [VKPGASVKLSCKASGYIFTS (SEQ. ID. No. 5)], the “OD at 490 nm” value is reported as 0.824 OD.

The binders below were run against T2, Full length recombinant HBcAg (rHBcAg) … (assay: competition EIA, HBcAg coated 1 ug/ml, peptide 6.25 ug/ml before mAb 4-2 (competitor); OD of bound mAb).
CKASGYSFTGYNMNWVKQSH (also called Peptide # 26) [CKASGYSFTGYNMNWVKQSH (SEQ. ID. No. 29)] was tested, and the “OD at 490 nm” value was 0.351 OD.
For VKPGASVKLSCKASGYIFTS (also called Peptide # 2; Pept. #2) [VKPGASVKLSCKASGYIFTS (SEQ. ID. No. 5)], the “OD at 490 nm” value was 0.336 OD.

Each binder was assayed against T2, Full length recombinant HBcAg (rHBcAg) … (assay: competition EIA, HBcAg coated 1 ug/ml, peptide 12.5 ug/ml before mAb 4-2 (competitor); OD of bound mAb).
CKASGYSFTGYNMNWVKQSH (also called Peptide # 26) [CKASGYSFTGYNMNWVKQSH (SEQ. ID. No. 29)] was tested, and the “OD at 490 nm” value was 0.357 OD.
With VKPGASVKLSCKASGYIFTS (also called Peptide # 2; Pept. #2) [VKPGASVKLSCKASGYIFTS (SEQ. ID. No. 5)] the “OD at 490 nm” value was 0.331 OD.

These binders were tested against T2, Full length recombinant HBcAg (rHBcAg) … (assay: EIA, peptide coated 12.5 ug/ml, HBcAg 10 ug/ml).
CKASGYSFTGYNMNWVKQSH (also called Peptide # 26) [CKASGYSFTGYNMNWVKQSH (SEQ. ID. No. 29)] showed an OD of 0.179 OD.
VKPGASVKLSCKASGYIFTS (also called Peptide # 2; Pept. #2) [VKPGASVKLSCKASGYIFTS (SEQ. ID. No. 5)] gave an OD of 0.913 OD.

What follows are binders tested against T2, Full length recombinant HBcAg (rHBcAg) … (assay: EIA, support-bound peptide, HBcAg 2 ug/well).
With CKASGYSFTGYNMNWVKQSH (also called Peptide # 26) [CKASGYSFTGYNMNWVKQSH (SEQ. ID. No. 29)] the “OD at 405 nm” value was 2.29 OD.
In the case of VKPGASVKLSCKASGYIFTS (also called Peptide # 2; Pept. #2) [VKPGASVKLSCKASGYIFTS (SEQ. ID. No. 5)], the “OD at 405 nm” value is reported as 3.69 OD.

Each binder was assayed against T1, truncated recombinant form of HBeAg … (assay: EIA, support-bound peptide, HBeAg 0.67 ug/ml).
CKASGYSFTGYNMNWVKQSH (also called Peptide # 26) [CKASGYSFTGYNMNWVKQSH (SEQ. ID. No. 29)] gave an OD of 0.027 OD.
VKPGASVKLSCKASGYIFTS (also called Peptide # 2; Pept. #2) [VKPGASVKLSCKASGYIFTS (SEQ. ID. No. 5)] gave an OD of 0.081 OD.

These binders were tested against T2, Full length recombinant HBcAg (rHBcAg) … (assay: competition EIA, HBcAg coated 5 ug/ml, peptide 200 ug/ml together with mAb 4-2 (competitor); OD of bound mAb).
For CKASGYSFTGYNMNWVKQSH (also called Peptide # 26) [CKASGYSFTGYNMNWVKQSH (SEQ. ID. No. 29)], the “OD at 490 nm” value was 0.341 OD.
With VKPGASVKLSCKASGYIFTS (also called Peptide # 2; Pept. #2) [VKPGASVKLSCKASGYIFTS (SEQ. ID. No. 5)] the “OD at 490 nm” value was 0.139 OD.

These binders were tested against T2, Full length recombinant HBcAg (rHBcAg) … (assay: competition EIA, HBcAg coated 1 ug/ml, peptide 50 ug/ml before mAb 4-2 (competitor); OD of bound mAb).
For CKASGYSFTGYNMNWVKQSH (also called Peptide # 26) [CKASGYSFTGYNMNWVKQSH (SEQ. ID. No. 29)], the “OD at 490 nm” value was 0.337 OD.
For VKPGASVKLSCKASGYIFTS (also called Peptide # 2; Pept. #2) [VKPGASVKLSCKASGYIFTS (SEQ. ID. No. 5)], the “OD at 490 nm” value was 0.188 OD.

The binders below were run against T2, Full length recombinant HBcAg (rHBcAg) … (assay: competition EIA, HBcAg coated 5 ug/ml, peptide 6.25 ug/ml together with mAb 4-2 (competitor); OD of bound mAb).
CKASGYSFTGYNMNWVKQSH (also called Peptide # 26) [CKASGYSFTGYNMNWVKQSH (SEQ. ID. No. 29)] was tested, and the “OD at 490 nm” value was 1.2 OD.
With VKPGASVKLSCKASGYIFTS (also called Peptide # 2; Pept. #2) [VKPGASVKLSCKASGYIFTS (SEQ. ID. No. 5)] the “OD at 490 nm” value was 0.867 OD.

These binders were tested against T2, Full length recombinant HBcAg (rHBcAg) … (assay: EIA, peptide coated 50 ug/ml, HBcAg 10 ug/ml).
In the case of CKASGYSFTGYNMNWVKQSH (also called Peptide # 26) [CKASGYSFTGYNMNWVKQSH (SEQ. ID. No. 29)], the OD is reported as 0.198 OD.
Binder VKPGASVKLSCKASGYIFTS (also called Peptide # 2; Pept. #2) [VKPGASVKLSCKASGYIFTS (SEQ. ID. No. 5)] has an OD of 1.22 OD.

The binders below were run against T1, truncated recombinant form of HBeAg … (assay: EIA, support-bound peptide, HBeAg 5 ug/ml).
In the case of CKASGYSFTGYNMNWVKQSH (also called Peptide # 26) [CKASGYSFTGYNMNWVKQSH (SEQ. ID. No. 29)], the OD is reported as 0.091 OD.
For VKPGASVKLSCKASGYIFTS (also called Peptide # 2; Pept. #2) [VKPGASVKLSCKASGYIFTS (SEQ. ID. No. 5)], the OD was 0.096 OD.

The binders below were run against T2, Full length recombinant HBcAg (rHBcAg) … (assay: competition EIA, HBcAg coated 1 ug/ml, peptide 100 ug/ml before mAb 4-2 (competitor); OD of bound mAb).
CKASGYSFTGYNMNWVKQSH (also called Peptide # 26) [CKASGYSFTGYNMNWVKQSH (SEQ. ID. No. 29)] was tested, and the “OD at 490 nm” value was 0.28 OD.
VKPGASVKLSCKASGYIFTS (also called Peptide # 2; Pept. #2) [VKPGASVKLSCKASGYIFTS (SEQ. ID. No. 5)] was tested, and the “OD at 490 nm” value was 0.083 OD.

The binders below were run against T2, Full length recombinant HBcAg (rHBcAg) … (assay: EIA, support-bound peptide, HBcAg 5 ug/ml).
With CKASGYSFTGYNMNWVKQSH (also called Peptide # 26) [CKASGYSFTGYNMNWVKQSH (SEQ. ID. No. 29)] the OD was 0.245 OD.
Work on VKPGASVKLSCKASGYIFTS (also called Peptide # 2; Pept. #2) [VKPGASVKLSCKASGYIFTS (SEQ. ID. No. 5)] yielded an OD of 0.989 OD.

What follows are binders tested against T1, truncated recombinant form of HBeAg … (assay: EIA, support-bound peptide, HBeAg 1.25 ug/ml).
CKASGYSFTGYNMNWVKQSH (also called Peptide # 26) [CKASGYSFTGYNMNWVKQSH (SEQ. ID. No. 29)] was tested, and the OD was 0.026 OD.
In the case of VKPGASVKLSCKASGYIFTS (also called Peptide # 2; Pept. #2) [VKPGASVKLSCKASGYIFTS (SEQ. ID. No. 5)], the OD is reported as 0.043 OD.

What follows are binders tested against T2, Full length recombinant HBcAg (rHBcAg) … (assay: competition EIA, HBcAg coated 5 ug/ml, peptide 50 ug/ml together with mAb 4-2 (competitor); OD of bound mAb).
CKASGYSFTGYNMNWVKQSH (also called Peptide # 26) [CKASGYSFTGYNMNWVKQSH (SEQ. ID. No. 29)] was tested, and the “OD at 490 nm” value was 1.25 OD.
In the case of VKPGASVKLSCKASGYIFTS (also called Peptide # 2; Pept. #2) [VKPGASVKLSCKASGYIFTS (SEQ. ID. No. 5)], the “OD at 490 nm” value is reported as 0.395 OD.

What follows are binders tested against T2, Full length recombinant HBcAg (rHBcAg) … (assay: EIA, support-bound peptide, HBcAg 1.25 ug/ml).
For CKASGYSFTGYNMNWVKQSH (also called Peptide # 26) [CKASGYSFTGYNMNWVKQSH (SEQ. ID. No. 29)], the OD was 0.038 OD.
Binder VKPGASVKLSCKASGYIFTS (also called Peptide # 2; Pept. #2) [VKPGASVKLSCKASGYIFTS (SEQ. ID. No. 5)] has an OD of 0.155 OD.

What follows are binders tested against T1, truncated recombinant form of HBeAg … (assay: EIA, support-bound peptide, HBeAg 20 ug/ml).
Binder CKASGYSFTGYNMNWVKQSH (also called Peptide # 26) [CKASGYSFTGYNMNWVKQSH (SEQ. ID. No. 29)] has an OD of 0.241 OD.
VKPGASVKLSCKASGYIFTS (also called Peptide # 2; Pept. #2) [VKPGASVKLSCKASGYIFTS (SEQ. ID. No. 5)] was tested, and the OD was 0.751 OD.

Each binder was assayed against T2, Full length recombinant HBcAg (rHBcAg) … (assay: competition EIA, HBcAg coated 5 ug/ml, peptide 25 ug/ml together with mAb 4-2 (competitor); OD of bound mAb).
In the case of CKASGYSFTGYNMNWVKQSH (also called Peptide # 26) [CKASGYSFTGYNMNWVKQSH (SEQ. ID. No. 29)], the “OD at 490 nm” value is reported as 1.35 OD.
In the case of VKPGASVKLSCKASGYIFTS (also called Peptide # 2; Pept. #2) [VKPGASVKLSCKASGYIFTS (SEQ. ID. No. 5)], the “OD at 490 nm” value is reported as 0.698 OD.
